20 molecules from patent EP4269437A1 can be followed below.

Changes are numbered by the printed parent chain. Where “and” joins values, the source holds several entries; their conditions need not be identical. Equal entries are not always repeated.

Sequences and labels used below:
B1: NB182 (Fc fusion, not shown: a dimerising Fc or GST)
heavy: QVQLVESGGGLVQAGGSLRLSCAASGDTSFISAAGWYRQAPGKERELVAAITNTGITYYPDSVKGRFTISRDNAKNTVYLQMNNLKPEDTAVYYCNAGAPPPGGLGYDESDYWGQGTQVTVSS
B2: NB194 (Fc fusion, not shown: a dimerising Fc or GST)
heavy: QVQLVETGGGLVRAGGSLRLSCTASGRPFSIYDMGWFRQAPDKERESVAVINLSRGDTYYADSVKGRFTISLDSAKNTVYLQMNSLKPEDTAVYSCGVDRRQYGLGIPPLADHWGQGTQVTVSS
B3: NB172 (VHH)
VHH: EVQLVESGGGLVQAGGSLRLSCTASGDTRLASAMGWYRQAPGKERELVAVITNSGLTHYADSVEGRFTISRDSAKNTVYLQMNSLKPEDTAVYYCNAGAPPPGGLGYDESDYWDQGTQVTVSS
B4: NB202 (VHH)
VHH: B3 VHH with L4V, V50A, H58Y, D114G
B5: NB192 (VHH)
VHH: EVQLVESGGGLVQAGGSLRLSCAASGRTFNGYGMGWFRQAPGKEREFVAAISWRDSSKYYADSVRDRFTASRDNAKNTVYLQMNSLKPEDTAVYYCRPYSDYVTYDPYDYDAWGQGTQVTVSS
B6: NB215 (VHH)
VHH: EVQVVESGGGLVQAGDSLRLSCAASGGTISGYEMGWFRQAPGKEREFVAGISRNGRSTGYSDSAKDRFTISRDNAKNTVYLQMNSLKPEDTAVYYCAAGLKADYGDSYVDTSTRNYNYWGQGTQVTVSS
B7: NB197 (VHH)
VHH: QVQLQESGGGLVQPGGSLRLSCAASGFTLDDHSIGWFRQAPGKEREPVSCISTSDGRTYYEDSVKGRFTISRDKAKNTVYLQMDSLKPEDTAVYYCTTDVACYSDYDPSFRFWGQGTQVTVSS
B8: NB170 (VHH)
VHH: EVQLVESGGGLVQAGDSLRLSCAASGGTFGRLETGWFRQAPGKEREFVAAISWDGETSYADSVKGRFTISRDNAKNTMALQMNRLTPEDTAVYFCAARVILRAYKYWGQGTQVTVSS
B9: NB205 (VHH)
VHH: EVQLVESGGGLVQVGDSLRLSCAASGRTFSSVPMGWFRQAPGNQREFVAAISKSGGSAGYADSVKDRSTISRDNAKNTIYLQMNSLKPEDTAVYYCAASSFDFCSTHGCYDYWGQGTQVTISS
B10: NB216 (VHH)
VHH: B9 VHH with E1Q, Q13R, V14A, R19T, F101Y
B11: NB171 (VHH)
VHH: QVQLVESGGGLVQAGGSLRLSCAASGRTFSSYAMGWFRQALGKEREWIAGVSMSGRTTYYAAPVKDRFTISRDNAKNTVTLQMNSLKPEDTAVYYCAAGRAQAEIPIMRAQEYDSWGQGTQVTVSS
B12: NB195 (VHH)
VHH: EVQVVESGGGLVQAGGSLRLSCAASGDTILISAIGWYRQAPGKVRELVAAITNSGVTYYTDSVKGRFTISRDNAKNTVYLQMDSLKPEDTAVYYCNAGGPPPGGLGYDESDYWGPGTHVTVSS
B13: NB173 (VHH)
VHH: QVQLQESGGGLVQAGGSLRLSCAASGRSFNSYAMGWFRQAPGKEREFVAAISQNGGTQGYAEAVKDRFTISRDNTNKVVALQMNSLKPEDTAAYYCAADGDASDISYAPPRDYEYDYWGQGTQVTVSS
B14: NB200 (VHH)
VHH: B13 VHH with Q5V, R19T, S28T, T57S, I105R, D116E
B15: NB218 (VHH)
VHH: QLQLVESGGGLVQAGDSLRLSCAASGRTFSSIAMGWFRQAPGKEREFVAAISRSGGSAGYADSVKDRSTIVRDNTKNTVYLQMNSLKPEDTAVYFCAASDYDFCSTHGCYDYWGQGTQVTISS
B16: NB211 (VHH)
VHH: EVQVVETGGGLAQAGGSLRLSCAASGRTFSGYTVGWYRQSPGKEREFVAAISYSGGSTDYADSVKGRFTISRDNANNTVYLQMGSLKAEDTAVYYCNRVIRGTRDPSIYYVMDYWGKGTLVTVSS
B17: NB189 (VHH)
VHH: QVKLEESGGGLVQAGGSLRLSCTASGGTFNSYAMGWFRQAPGKERESVAAINLSRGNTYYADSVKGRFTISRDNAKNTVYLQMNSLKPEDTAVYHCGVDRRQYGLGIPPLADHWGQGTQVTVSS
B18: NB220 (VHH)
VHH: QVQLQESGGGLLQAGDSLRLSCIVSGRTFSSYAIGWFRQAPGKEREFVAGINWSGRSQYYSESVKDRFTVSIDNAKNTVYLQMNSLKPEDTAVYYCAAERHLGVPTVRDDEYDDWGQGTQVTVSS
B19: NB196 (VHH)
VHH: QVQLVETGGGLVQAGGSLRLSCTASGDTNLFSAMGWHRQAPGKERELVAAITNSGMTYYADVVKGRFTLSRDNAKNTVYLQMNSLKPEDTAVYYCNAGAPPPGGFGYDESDYWGQGTQVTVSS
B20: NB209 (VHH)
VHH: EVQVVESGGGLVQTGGSLRLSCAASGDTALFSAVGWYRQAPGKERELVAALTNTGITYYADSVEGRFTIFRDNAKNTVYLQMNSLKPEDTAVYYCNAGAPPPGGLGYDESDYWGQGTQVTVSS

The first experiment deals with PD-1 (CD28 family protein, ACROBiosystems) (UniProt Q15116). In words: ELISA on coated protein, anti-human Fc HRP. (In general: In an ELISA, binding on a coated surface is turned into a signal by an enzyme label.)
Sequence of PD-1 (CD28 family protein, ACROBiosystems) (Q15116 25-167 limits assumed): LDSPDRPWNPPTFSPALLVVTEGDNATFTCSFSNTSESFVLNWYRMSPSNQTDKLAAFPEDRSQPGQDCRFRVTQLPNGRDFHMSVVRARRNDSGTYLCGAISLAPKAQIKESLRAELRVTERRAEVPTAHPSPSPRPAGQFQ
On to B1, for which the ELISA (OD) is 2.06 OD and 2.09 OD and 2.29 OD.
Consider B2, for which the ELISA (OD) was 2.03 OD and 1.96 OD and 2.27 OD.

A further experiment has as its target PD-1 (UniProt Q15116). In words: ELISA on coated protein, anti-human Fc HRP.
Target sequence in this assay (Q15116 25-167 limits assumed): as above
Take B1: the ELISA (OD) was 2.17 OD and 2.13 OD and 2.1 OD.
Take B2: the ELISA (OD) was 2.22 OD and 1.95 OD and 2.11 OD.

In another experiment the target is cynomolgus monkey PD-1 protein (cynomolgus monkey) (UniProt B0LAJ3). In words: ELISA on coated protein, anti-human Fc HRP.
Sequence of cynomolgus monkey PD-1 protein (cynomolgus monkey) (B0LAJ3 entry or part of it limits assumed): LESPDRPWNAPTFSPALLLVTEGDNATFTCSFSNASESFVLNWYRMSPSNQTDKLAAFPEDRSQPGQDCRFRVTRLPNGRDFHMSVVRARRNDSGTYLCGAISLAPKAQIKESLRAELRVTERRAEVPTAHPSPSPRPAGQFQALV
With B1, the ELISA (OD) was 2.07 OD and 2.08 OD and 1.95 OD.
On the same count and under the same terms, with B2 the figure was 2.23 OD and 2.17 OD and 2.1 OD.

Another experiment has as its target PD-1 (UniProt Q15116). The experiment can be described thus: ELISA, TG1 supernatant on coated PD-1, anti-c-myc HRP.
Target sequence in this assay (Q15116 25-170 limits assumed): as the sequence (B0LAJ3 entry or part of it limits assumed) above, with E2D, A10P, L19V, A35T, R75Q, A144T counted along it
For B3, the OD450, clone binding with PD-1 worked out at 3.05 OD450.
Still for that read-out and setting: to B4 belongs 3.04 OD450.
For the molecule B1, the OD450, clone binding with PD-1 was 3.08 OD450.
The molecule B5 came in with an OD450, clone binding with PD-1 of 2.65 OD450.
On the same count and under the same terms, with B6 the figure was 3.29 OD450; with B7, 2.66 OD450; with B8, 2.7 OD450.
B9 registered an OD450, clone binding with PD-1 of 2.25 OD450.
Still for that read-out and setting: with B10 the figure was 2.75 OD450; with B11, 2.78 OD450; with B12, 3.13 OD450.
On the same count and under the same terms, to B13 belongs 2.97 OD450; to B14, 2.31 OD450; to B15, 2.62 OD450.
Same read-out and setting: to B16 belongs 2.71 OD450; to B17, 2.97 OD450.
Molecule B18 gave an OD450, clone binding with PD-1 of 2.38 OD450.
Same read-out and setting: to B2 belongs 2.83 OD450; to B19, 3.39 OD450; to B20, 3.22 OD450.

The next experiment has as its target PD-1 (UniProt Q15116). The experiment can be described thus: blocking ELISA, clone supernatant, competitor PD-L1.hFc detected with anti-human Fc HRP.
Target sequence in this assay (Q15116 25-170 limits assumed): as the sequence (B0LAJ3 entry or part of it limits assumed) above, with E2D, A10P, L19V, A35T, R75Q, A144T counted along it
As for B3, the OD450, PD-L1 binding with PD-1 came out at 2.17 OD450.
Same read-out and setting: to B4 belongs 0.723 OD450; to B1, 0.213 OD450.
Still for that read-out and setting: to B5 belongs 2.24 OD450; to B6, 1.27 OD450; to B7, 2.27 OD450.
The same measure, in the same setting: to B8 belongs 2.02 OD450; to B9, 2.2 OD450.
B10 returned an OD450, PD-L1 binding with PD-1 of 2.45 OD450.
B11: the OD450, PD-L1 binding with PD-1 turned out to be 0.715 OD450.
On the same count and under the same terms, to B12 belongs 2.24 OD450; to B13, 0.794 OD450.
B14 came in with an OD450, PD-L1 binding with PD-1 of 2.48 OD450.
On the same count and under the same terms, with B15 the figure was 2.32 OD450; with B16, 2.21 OD450.
Consider B17, for which the OD450, PD-L1 binding with PD-1 is 2.34 OD450.
The same measure, in the same setting: to B18 belongs 2.21 OD450.
Molecule B2 returned an OD450, PD-L1 binding with PD-1 of 0.152 OD450.
Still for that read-out and setting: with B19 the figure was 2.49 OD450.
In turn, B20 registered an OD450, PD-L1 binding with PD-1 of 2.04 OD450.
